Assay results taken from PMC3030355.
Like-named read-outs stand apart in the source and are kept apart here.

Legend:
Assay in all cases: EMSA
[1] = molecular target: T1, RPA-wt (RPA70/RPA32/RPA14 heterotrimer) (human, UniProt P27694;P15927;P35244 1-616;1-270;1-121)
[2] = molecular target: T1, RPA-wt (RPA70/RPA32/RPA14 heterotrimer); remark: listed apart in the source
[3] = molecular target: T2, WRN-E84A (exonuclease-deficient) (human, UniProt Q14191 1-1432, E84A)
[4] = molecular target: T2, WRN-E84A (exonuclease-deficient); remark: listed apart in the source
[5] = molecular target: T1, RPA-wt (RPA70/RPA32/RPA14 heterotrimer); remark: listed apart in the source

T1 sequence (P27694 whole entry, chain 1 of 3): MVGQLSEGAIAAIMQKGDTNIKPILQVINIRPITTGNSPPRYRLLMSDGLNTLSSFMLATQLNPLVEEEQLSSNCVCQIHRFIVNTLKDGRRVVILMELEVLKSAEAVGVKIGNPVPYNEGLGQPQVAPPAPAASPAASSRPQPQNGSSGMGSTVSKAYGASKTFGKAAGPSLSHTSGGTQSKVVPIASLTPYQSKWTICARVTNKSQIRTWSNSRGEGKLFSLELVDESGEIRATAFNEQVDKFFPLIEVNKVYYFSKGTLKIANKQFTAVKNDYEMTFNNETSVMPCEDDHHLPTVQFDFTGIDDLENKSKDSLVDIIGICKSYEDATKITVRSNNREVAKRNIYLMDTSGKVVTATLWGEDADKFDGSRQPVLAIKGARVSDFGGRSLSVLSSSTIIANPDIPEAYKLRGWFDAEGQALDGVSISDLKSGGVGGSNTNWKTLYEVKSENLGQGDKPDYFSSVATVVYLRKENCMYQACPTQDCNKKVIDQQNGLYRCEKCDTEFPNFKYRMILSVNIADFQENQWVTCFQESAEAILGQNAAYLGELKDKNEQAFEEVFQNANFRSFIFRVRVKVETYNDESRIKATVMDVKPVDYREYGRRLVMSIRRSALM
T1 sequence (P15927 whole entry, chain 2 of 3): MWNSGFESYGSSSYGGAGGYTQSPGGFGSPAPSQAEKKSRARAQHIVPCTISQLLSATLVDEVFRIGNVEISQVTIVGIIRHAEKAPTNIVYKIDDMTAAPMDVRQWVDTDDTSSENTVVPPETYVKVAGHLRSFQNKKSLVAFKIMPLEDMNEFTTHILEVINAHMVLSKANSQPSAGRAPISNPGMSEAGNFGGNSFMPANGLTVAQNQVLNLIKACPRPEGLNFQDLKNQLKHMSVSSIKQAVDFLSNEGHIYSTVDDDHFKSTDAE
T1 sequence (P35244 whole entry, chain 3 of 3): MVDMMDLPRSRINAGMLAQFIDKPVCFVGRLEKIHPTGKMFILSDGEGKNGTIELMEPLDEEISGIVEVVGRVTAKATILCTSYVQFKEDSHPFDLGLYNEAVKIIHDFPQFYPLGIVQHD
T2 sequence (Q14191 whole entry E84A): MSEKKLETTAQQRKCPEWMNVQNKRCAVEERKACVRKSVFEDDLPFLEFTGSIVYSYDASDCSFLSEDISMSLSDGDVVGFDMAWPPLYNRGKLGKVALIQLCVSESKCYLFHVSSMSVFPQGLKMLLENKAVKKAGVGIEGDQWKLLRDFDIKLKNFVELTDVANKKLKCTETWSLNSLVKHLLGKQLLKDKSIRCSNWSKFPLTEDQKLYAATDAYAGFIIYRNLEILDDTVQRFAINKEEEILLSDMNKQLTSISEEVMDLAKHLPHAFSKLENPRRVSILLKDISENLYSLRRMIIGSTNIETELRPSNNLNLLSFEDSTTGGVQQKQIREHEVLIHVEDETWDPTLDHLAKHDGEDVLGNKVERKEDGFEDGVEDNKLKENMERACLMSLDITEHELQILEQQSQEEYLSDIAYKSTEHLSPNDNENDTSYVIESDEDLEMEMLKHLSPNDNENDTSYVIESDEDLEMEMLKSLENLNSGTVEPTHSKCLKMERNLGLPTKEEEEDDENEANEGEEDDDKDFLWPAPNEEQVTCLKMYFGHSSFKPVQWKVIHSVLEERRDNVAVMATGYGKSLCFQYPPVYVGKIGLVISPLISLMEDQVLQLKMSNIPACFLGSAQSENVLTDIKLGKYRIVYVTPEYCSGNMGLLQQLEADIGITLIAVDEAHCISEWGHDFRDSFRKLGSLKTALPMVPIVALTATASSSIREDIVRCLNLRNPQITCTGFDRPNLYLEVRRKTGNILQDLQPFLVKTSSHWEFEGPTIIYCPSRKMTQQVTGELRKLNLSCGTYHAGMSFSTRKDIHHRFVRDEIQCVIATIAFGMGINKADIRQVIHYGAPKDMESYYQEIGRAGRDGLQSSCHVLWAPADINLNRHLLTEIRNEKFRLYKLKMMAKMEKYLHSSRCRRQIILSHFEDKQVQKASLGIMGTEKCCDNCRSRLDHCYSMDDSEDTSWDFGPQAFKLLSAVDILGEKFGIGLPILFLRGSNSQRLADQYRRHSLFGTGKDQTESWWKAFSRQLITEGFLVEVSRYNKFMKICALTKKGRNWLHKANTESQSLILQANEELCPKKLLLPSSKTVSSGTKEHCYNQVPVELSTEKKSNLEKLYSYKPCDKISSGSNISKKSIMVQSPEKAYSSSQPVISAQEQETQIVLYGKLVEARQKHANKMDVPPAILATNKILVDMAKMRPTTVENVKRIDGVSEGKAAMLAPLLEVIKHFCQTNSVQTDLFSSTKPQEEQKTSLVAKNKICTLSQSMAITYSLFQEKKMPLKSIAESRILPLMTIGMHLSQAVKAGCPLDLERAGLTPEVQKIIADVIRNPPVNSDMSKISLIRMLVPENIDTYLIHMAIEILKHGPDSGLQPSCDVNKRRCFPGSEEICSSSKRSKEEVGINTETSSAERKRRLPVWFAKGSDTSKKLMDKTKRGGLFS

Binder: TAAGTGAGTGTGAGGATACATGTAGGCAATTG (ssDNA) [ss32]
- binding result [1]: binds

B1: model replication fork, 32-nt leading gap (mixed)
DNA 1: CGTGACTTGATGTTAACCCTAACCCTAAGATATCGCGTTAAGTGAGTGTGAGGATACATGTAGGCAATTGCCACGTGTCTATCAGCTGAAGTTGTTCGCGACGTGCGATCGTCGCTGCGACG
DNA 2: CGTCGCAGCGACGATCGCACGTCGCGAACAACTTCAGCTGATAGACACGTGGCAATTGCCTACATGTATCCTCACACTCTGAATACGCGATATCTTAGGGTTAGGGTTAACATCAAGTCACG
DNA 3: CGTCGCAGCGACGATCGCACGTCGCGAACAACTTCAGCTGATAGACACGTGG
DNA 4: TCAGAGTGTGAGGATACATGTAGGCAATTGCCACGTGTCTATCAGCTGAAGTTGTTCGCGACGTGCGATCGTCGCTGCGACG
- binding result [2]: binds
- binding result [3]: binds

B2: gapped duplex, 32-nt gap (mixed)
DNA 1: B1 DNA 1
DNA 2: B1 DNA 3
DNA 3: ACGCGATATCTTAGGGTTAGGGTTAACATCAAGTCACG
- binding result [4]: binds
- binding result [5]: binds
